Test results published in publication PMC10520678.

Key:
TRIM21 [1] = target: TRIM21 (UniProt P19474); test: anti-Flag co-IP, TRIM21 blot; conditions: reference: wild type, EGF-treated; sites Y288
TRIM21 [2] = target: TRIM21 (UniProt P19474); test: co-IP, blot; conditions: reference: wild type CD47, c-Src CA expressed; sites Y288

Row | Substance | binding against the reference (TRIM21 [1]) | binding against the reference (TRIM21 [2])
1 | CD47 (from UniProt Q08722) Y288F, EGF-treated | stronger | –
2 | CD47 (from UniProt Q08722) Y288F, c-Src CA expressed | – | stronger
